{
  "source": "patent US6558922B1",
  "about": "“Methods and compositions for production of floral scent compounds” (Purdue Research Foundation, priority 1999, dated 2003)",
  "molecules": {"B1": {"name": "S-adenosyl-L-methionine:benzoic acid carboxyl methyltransferase (BAMT) from snapdragon (Antirrhinum majus) petals (enzyme)", "chain": "MKVMKKLLCMNIAGDGETSYANNSGLQKVMMSKSLHVLDETLKDIIGDHVGFPKCFKMMDMGCSSGPNALLVMSGIINTIEDLYTEKNINELPEFEVFLNDLPDNDFNNLFKLLSHENGNCFVYGLPGSFYGRLLPKKSLHFAYSSYSIHWLSQVPEGLEDNNRQNIYMATESPPEVYKAYAKQYERDFSTFLKLRGEEIVPGGRMVLTFNGRSVEDPSSKDDLAIFTLLAKTLVDMVAEGLVKMDDLYSFNIPIYSPCTREVEAAILSEGSFTLDRLEVFRVCWDASDYTDDDDQQDPSIFGKQRSGKFVADCVRAITEPMLASHFGSTIMDLLFGKYAKKIVEHLSVENSSYFSIVVSLSRR", "notes": "Native protein from upper and lower petal lobes; The native enzyme is reported as a homodimer (100 kDa by gel filtration, 49 kDa on SDS-PAGE); In the immunoblots it was the denatured monomer after SDS-PAGE; also called BAMT protein; plant BAMT"}, "B2": {"name": "Plant: BAMT protein purified from upper and lower petal lobes of snapdragon flowers (protein)", "chain": "B1 chain"}, "B3": {"name": "E. coli Met1: E. coli expressed snapdragon BAMT starting with the first methionine codon, N-terminal 6×His tag (protein, UniProt Q9FYZ9 1-364, looked up)", "chain": "B1 chain", "modifications": "full-length N-terminal 6xHis tag"}, "B4": {"name": "SAM:salicylic acid carboxyl methyl transferase (protein, listed as Clarkia breweri)", "chain": "MDVRQVLHMKGGAGENSYAMNSFIQRQVISITKPITEAAITALYSGDTVTTRLAIADLGCSSGPNALFAVTELIKTVEELRKKMGRENSPEYQIFLNDLPGNDFNAIFRSLPIENDVDGVCFINGVPGSFYGRLFPRNTLHFIHSSYSLMWLSQVPIGIESNKGNIYMANTCPQSVLNAYYKQFQEDHALFLRCRAQEVVPGGRMVLTILGRRSEDRASTECCLIWQLLAMALNQMVSEGLIEEEKMDKFNIPQYTPSPTEVEAEILKEGSFLIDHIEASEIYWSSCTKDGDGGGSVEEEGYNVARCMRAVAEPLLLDHFGEAIIEDVFHRYKLLIIERMSKEKTKFINVIVSLIRKSD", "notes": "salicylic acid carboxyl methyl transferase from C. breweri"}},
  "key": {"BAMT [1]": {"target": "T1, BAMT (Antirrhinum majus, UniProt Q9FYZ9)", "T1 construct": "The enzyme activity was purified from upper and lower petal lobes of 5- to 10-day-old snapdragon flowers; from tissue; host or cells: upper and lower petal lobes of 5- to 10-day-old snapdragon flowers", "T1 sequence (Q9FYZ9 1-364)": "B1 chain", "assay": "BAMT enzyme assay, substrate specificity of plant-purified BAMT (fraction after MonoQ)", "format": "biochemical", "conditions": "plant BAMT purified through MonoQ, compound tested as substrate instead of benzoic acid", "excerpt": "The raw data (counts per minute) were converted to picokatals (picomoles of product produced per second) based on the specific activity of the substrate and efficiency of counting. Controls included assays with boiled protein extracts and without substrate, and background radioactivity produced in such assays was subtracted from all of the results.\nThe enzyme activity was purified from upper and lower petal lobes of 5- to 10-day-old snapdragon flowers in a series of chromatographic steps involving a DEAE anion exchange column (DE53, Whatman International, Maidstone, England), phenyl Sepharose 6FF (low sub, level of phenyl substitution 20 μmole per ml gel) column (Pharmacia Biotech, Piscataway, N.J.), and another anion exchange column, MonoQ, on Pharmacia's fast-performance liquid chromatography system. A complete description of the purification protocol is described in Example 7."}, "BAMT [2]": {"target": "T1, BAMT", "assay": "BAMT activity with different substrates in lysates of E. coli expressing BAMT cDNA", "format": "biochemical", "conditions": "lysates of E. coli cells expressing BAMT", "excerpt": "The raw data (counts per minute) were converted to picokatals (picomoles of product produced per second) based on the specific activity of the substrate and efficiency of counting.\n(Yamaguchi et al., 1996)."}, "BAMT [3]": {"tested_on": "BAMT", "assay": "Effectors: BAMT enzyme assay with cations in assay buffer", "format": "biochemical, Antirrhinum majus", "conditions": "for Stimulation of BAMT activity (factor): cation at 5 mM in assay buffer"}, "BAMT [4]": {"tested_on": "BAMT", "assay": "Kinetic properties of purified plant and E. coli expressed BAMT proteins", "format": "biochemical, Antirrhinum majus", "conditions": "purified protein; for KmSAM: Table 4"}, "BAMT [5]": {"tested_on": "BAMT", "protocol": "The optimum pH for BAMT activity was determined using two buffer systems. Reactions were carried out in 50 mM Tris-HCl buffer with pH ranging from 6.5 to 9.0 and in 50 mM Tris/Na phosphate/Na citrate buffer with pH ranging from 4.0 to 9.5. Final results are an average of four independent assays."}, "BAMT [6]": {"target": "T1, BAMT", "assay": "Specific activity of BAMT purified from snapdragon petals", "format": "biochemical", "conditions": "from 25 g fresh petal material after Mono-Q", "method": "After the enzyme was loaded, the column was washed with 3 mL 300 mM KCl in buffer A and eluted with a linear reverse gradient (4 mL) from 300 mM KCl in buffer A to water followed by an additional 11 mL of water. Fractions of 0.7 ml were collected into tubes containing 100 μL 1 M KCl, 100 μL glycerol, 100 μL of 0.5 M Bis-Tris-HCl, pH 6.9 and 1 μL of 14 M β-mercaptoethanol. […] The column was previously equilibrate with 100 mM KCl in buffer A. After loading the protein onto the column, the column was washed with 100 mM KCl in buffer A and the bound protein was eluted using a 10 mL linear (100-400 mM) gradient of KCl in buffer A followed by an additional 5 mL of buffer A containing 400 mM KCl, at flow rate of 0.25 mL/min. The enzyme consistently eluted at about 360 mM KCl. Fractions (0.5 mL each) were collected and protein content and purity were examined by SDS-PAGE gel electrophoresis followed by staining of the gel with Coomassie Brilliant Blue. Fractions which had the largest amount of pure protein were used for N-terminal sequencing, internal peptide sequencing, and initial enzyme characterization."}, "E. coli BAMT protein": {"target": "T2, E. coli BAMT protein (Antirrhinum majus, UniProt Q9FYZ9)", "T2 sequence (Q9FYZ9 1-364)": "B1 chain", "assay": "Product inhibition kinetics of methylation reaction by SAH", "description": "Linear regressions were fitted to the data in double-reciprocal plots. Replots of the data were used to determine the kinetic parameters."}, "[7]": {"target": "the molecule itself", "assay": "gel filtration on Superdex 200-HR (100 kDa native) against SDS-PAGE (49 kDa subunit)"}, "BAMT [8]": {"tested_on": "BAMT", "conditions": "read-out: Km of plant BAMT protein for benzoic acid; Murfitt, et al., 2000; cited from earlier work"}, "BAMT [9]": {"tested_on": "BAMT", "assay": "Specific activity of plant BAMT expressed in E. coli BL21 (DE3) cells", "protocol": "The E. coli.-expressed BAMT protein was purified by nickel-based affinity chromatography (2.5 ml bed volume) according to the manufacturer's protocol (Novagen, Inc)."}, "SAMT": {"target": "T3, SAMT (Clarkia breweri, UniProt Q9SPV4)", "T3 sequence (Q9SPV4 1-359)": "B4 chain", "conditions": "Ross et al., 1999, cited from earlier work"}, "[10]": {"conditions": "read-out: KmBA (Km for benzoic acid)"}},
  "note": "Where two headings read alike, the source gives them in different places.",
  "data": [
    {"molecule": "O=C(O)/C=C/c1ccccc1", "note": "[trans-cinnamic acid]", "values": [
      {"measurement": "BAMT activity with compound as substrate", "setting": "BAMT [1]", "value": "no activity was detected"},
      {"measurement": "BAMT activity with compound as substrate", "setting": "BAMT [2]", "value": "no activity"}
    ]},
    {"molecule": "O=C(O)/C=C/c1ccc(O)cc1", "note": "[4-coumaric acid]", "values": [
      {"measurement": "BAMT activity with compound as substrate", "setting": "BAMT [1]", "value": "no activity was detected"}
    ]},
    {"molecule": "[K+]", "note": "[K^+]", "values": [
      {"measurement": "Stimulation of BAMT activity (factor)", "setting": "BAMT [3]", "value": 2}
    ]},
    {"molecule": "S-adenosyl-L-methionine:benzoic acid carboxyl methyltransferase [BAMT]", "values": [
      {"measurement": "Km", "setting": "BAMT [4]; read-out: Km for SAM", "value": 28, "unit": "µM"},
      {"measurement": "Km", "setting": "BAMT [4]; [10]", "value": 1100, "unit": "µM"},
      {"measurement": "Percent of maximum activity", "setting": "BAMT [5]; at both pH 6.5 and 8.5", "value": 65, "unit": "%"},
      {"measurement": "Enzyme activity as percent of the optimal value", "setting": "BAMT [5]; at pH 5.5 and 9.5", "value": "about 50%"},
      {"measurement": "Specific activity of purified BAMT protein", "setting": "BAMT [6]", "value": 327, "unit": "pkat/mg protein"}
    ]},
    {"molecule": "O=C(O)c1cccc(O)c1", "note": "[3-hydroxybenzoic acid]", "values": [
      {"measurement": "BAMT activity with compound as substrate", "setting": "BAMT [1]", "value": "no activity was detected"}
    ]},
    {"molecule": "O=C(O)/C=C/c1ccccc1O", "note": "[2-coumaric acid]", "values": [
      {"measurement": "BAMT activity with compound as substrate", "setting": "BAMT [1]", "value": "no activity was detected"}
    ]},
    {"molecule": "[Mg+2]", "note": "[Mg^2+]", "values": [
      {"measurement": "Effect on BAMT activity", "setting": "BAMT [3]; 5 mM Mg2+ in the assay reaction", "value": "not affected"}
    ]},
    {"molecule": "N", "note": "[NH4^+]", "values": [
      {"measurement": "Stimulation of BAMT activity (factor)", "setting": "BAMT [3]", "value": 2}
    ]},
    {"molecule": "OCc1ccccc1", "note": "[benzyl alcohol]", "values": [
      {"measurement": "BAMT activity with compound as substrate", "setting": "BAMT [1]", "value": "no activity was detected"},
      {"measurement": "BAMT activity with compound as substrate", "setting": "BAMT [1]; listed as benzylalcohol", "value": "no activity"}
    ]},
    {"molecule": "O=C(O)/C=C/c1cccc(O)c1", "note": "[3-coumaric acid]", "values": [
      {"measurement": "BAMT activity with compound as substrate", "setting": "BAMT [1]", "value": "no activity was detected"}
    ]},
    {"molecule": "Nc1ncnc2c1ncn2[C@@H]1O[C@H](CSCC[C@H](N)C(=O)O)[C@@H](O)[C@H]1O", "note": "[SAH, S-adenosyl-L- homocysteine]", "values": [
      {"measurement": "Ki", "setting": "E. coli BAMT protein; Ki value of SAH for BA, noncompetitive with respect to BA, SAM fixed at 150 μM", "value": 14, "unit": "µM"},
      {"measurement": "Ki", "setting": "E. coli BAMT protein; Ki value of SAH for SAM, competitive with respect to SAM, BA fixed at 4 mM", "value": 7, "unit": "µM"}
    ]},
    {"molecule": "O=C(O)c1ccccc1O", "note": "[salicylic acid]", "values": [
      {"measurement": "BAMT activity with compound as substrate", "setting": "BAMT [1]", "value": "no activity was detected"},
      {"measurement": "BAMT activity with compound as substrate", "setting": "BAMT [2]", "value": "no activity"}
    ]},
    {"molecule": "O=C(O)c1ccc(O)cc1", "note": "[4-hydroxybenzoic acid]", "values": [
      {"measurement": "BAMT activity with compound as substrate", "setting": "BAMT [1]", "value": "no activity was detected"}
    ]},
    {"molecule": "B1", "values": [
      {"measurement": "binding result", "setting": "[7]", "value": "binds"}
    ]},
    {"molecule": "B2", "values": [
      {"measurement": "Vmax", "setting": "BAMT [4]", "value": 220, "unit": "pkat/mg"},
      {"measurement": "kcat (turnover number of enzyme)", "setting": "BAMT [4]", "value": 0.02, "unit": "s⁻¹"},
      {"measurement": "KmSAM", "setting": "BAMT [4]", "value": 28, "unit": "μm"},
      {"measurement": "Km", "setting": "BAMT [4]; read-out: Km for SAM", "value": 28, "unit": "µM"},
      {"measurement": "Km", "setting": "BAMT [4]; [10]", "value": 1100, "unit": "µM"},
      {"measurement": "Km", "setting": "BAMT [8]", "value": 1000, "unit": "µM"}
    ]},
    {"molecule": "B3", "values": [
      {"measurement": "Vmax", "setting": "BAMT [4]", "value": 300, "unit": "pkat/mg"},
      {"measurement": "kcat (turnover number of enzyme)", "setting": "BAMT [4]", "value": 0.03, "unit": "s⁻¹"},
      {"measurement": "KmSAM", "setting": "BAMT [4]", "value": 87, "unit": "μm"},
      {"measurement": "Km", "setting": "BAMT [4]; read-out: Km for SAM", "value": 87, "unit": "µM"},
      {"measurement": "Km", "setting": "BAMT [4]; [10]", "value": 1500, "unit": "µM"},
      {"measurement": "Specific activity, crude lysates", "setting": "BAMT [9]; E. coli BL21 (DE3) after IPTG induction", "value": 9, "unit": "pkat/mg protein"},
      {"measurement": "Specific activity of purified recombinant enzyme", "setting": "BAMT [9]; purified from E. coli", "value": 135, "unit": "pcat/mg protein"},
      {"measurement": "Specific activity, purified protein", "setting": "BAMT [9]; purified from E. coli on nickel column", "value": 135, "unit": "pkat/mg protein"}
    ]},
    {"molecule": "B4", "values": [
      {"measurement": "Km", "setting": "SAMT; read-out: Km value for BA", "value": 190, "unit": "µM"},
      {"measurement": "Km", "setting": "SAMT; read-out: Km value for SA", "value": 24, "unit": "µM"},
      {"measurement": "Km", "setting": "SAMT; read-out: Km value for SAM", "value": 9, "unit": "µM"}
    ]}
  ]
}
